Results as given in PMC11996680.

Biological target: T1, HOOK3-SNAPf labeled with Alexa-647 (human) (UniProt Q86VS8)
T1 sequence (chain, Alexa-647 on the SNAP tag): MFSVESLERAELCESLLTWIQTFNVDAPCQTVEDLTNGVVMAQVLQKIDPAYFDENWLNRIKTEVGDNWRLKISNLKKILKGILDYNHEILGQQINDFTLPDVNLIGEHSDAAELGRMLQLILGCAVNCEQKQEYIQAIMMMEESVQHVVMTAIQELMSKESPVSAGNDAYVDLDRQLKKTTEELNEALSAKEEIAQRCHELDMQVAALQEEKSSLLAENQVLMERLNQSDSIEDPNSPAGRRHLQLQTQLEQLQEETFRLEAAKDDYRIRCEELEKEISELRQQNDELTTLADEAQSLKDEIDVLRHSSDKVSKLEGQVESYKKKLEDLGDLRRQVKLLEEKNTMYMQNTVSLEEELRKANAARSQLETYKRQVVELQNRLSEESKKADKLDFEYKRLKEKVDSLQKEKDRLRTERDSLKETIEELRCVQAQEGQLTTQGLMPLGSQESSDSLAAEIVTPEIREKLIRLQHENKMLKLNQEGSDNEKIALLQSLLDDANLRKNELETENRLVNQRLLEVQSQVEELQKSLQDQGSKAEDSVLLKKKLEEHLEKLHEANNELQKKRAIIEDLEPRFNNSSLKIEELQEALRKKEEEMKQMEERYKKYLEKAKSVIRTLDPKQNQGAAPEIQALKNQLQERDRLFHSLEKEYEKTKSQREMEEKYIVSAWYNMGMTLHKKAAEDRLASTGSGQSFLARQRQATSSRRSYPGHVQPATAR

B1: GST–KIF1C^642–922–GFP (domain or fragment)
chain: EMEKRLQDLENQYRKEKEEADLLLEQQRLYADSDSGDDSDKRSCEESWRLISSLREQLPPTTVQTIVKRCGLPSSGKRRAPRRVYQIPQRRRLQGKDPRWATMADLKMQAVKEICYEVALADFRHGRAEIEALAALKMRELCRTYGKPDGPGDAWRAVARDVWDTVGEEEGGGAGSGGGSEEGARGAEVEDLRAHIDKLTGILQEVKLQNSSKDRELQALRDRMLRMERVIPLAQDHEDENEEGGEVPWAPPEGSEAAEEAAPSDRMPSARPPSPPLSSWE
TMR–dynein landing rate on microtubules (TIRF), dynein–dynactin–HOOK3 with against without GST–KIF1C stalk–GFP: 2.6 fold
